Target: T1, (H3–H4)2 tetramer (Xenopus laevis, UniProt P84233 1-136; P62799 1-103, H4 E63C, Alexa 488 maleimide on C63 (H4 E63C))
T1 construct: Histone H3, Xenopus laevis; also called H3–H4 tetramer; H3–H4 complex; copies: 2 + 2
Assay: other fluorescence titration; Arp constructs or sub-complex titrated (1 to 5000 nM) into fluorescently labelled histone complexes or nucleosomes kept at 0.5-1 nM, 40 µl in microplates; 20 mM Tris pH 7.5, 150 mM KCl, 5% glycerol, 1 mM TCEP, 0.01% CHAPS, 0.01% octylglucoside; room temperature, 20-30 min; apparent Kd and Hill coefficient from non-linear fit; quadruplicates
Settings: both partners purified

Kd	Binder
485 nM	Saccharomyces cerevisiae Arp8 (natural protein, Actin-related protein 8 (Arp8), S. cerevisiae; also called Sc Arp8; yeast Arp8) MSQEEAESSIIYEEPIDIPLEDDDDEDELEEENSVPLSSQADQENAENESDDSVDNVVGSETPRSVTGLSVDPRDVADEEDEDEEGEDEDEDEDDNDVDNEDENDNDNANENENELGSSRDKRAPPAVQTSKRYKKYPKLDPAKAPPGKKVPLHLLEKRRLGRIKAAEEFAKTLKKIGIEKVETTTLPATGLFQPLMLINQKNYSSDYLKKDDQIFALRDRKFLRNNNTSQISSTNTPDVIDLKSLPHSEASAAPLNDEIDLNDPTATIVIHPGSNSIKIGFPKDDHPVVVPNCVAVPKKWLDLENSEHVENVCLQREQSEEFNNIKSEMEKNFRERMRYYKRKVPGNAHEQVVSFNENSKPEIISEKNDPSPIEWIFDDSKLYYGSDALRCVDEKFVIRKPFRGGSFNVKSPYYKSLAELISDVTKLLEHALNSETLNVKPTKFNQYKVVLVIPDIFKKSHVETFIRVLLTELQFQAVAIIQESLATCYGAGISTSTCVVNIGAAETRIACVDEGTVLEHSAITLDYGGDDITRLFALFLLQSDFPLQDWKIDSKHGWLLAERLKKNFTTFQDADVAVQLYNFMNRSPNQPTEKYEFKLFDEVMLAPLALFFPQIFKLIRTSSHKNSSLEFQLPESRDLFTNELNDWNSLSQFESKEGNLYCDLNDDLKILNRILDAHNIIDQLQDKPENYGNTLKENFAPLEKAIVQSIANASITADVTRMNSFYSNILIVGGSSKIPALDFILTDRINIWRPSLLSSASFPQFYKKLTKEIKDLEGHYVNAPDKTEDENKQILQAQIKEKIVEELEEQHQNIEHQNGNEHIFPVSIIPPPRDMNPALIIWKGASVLAQIKLVEELFITNSDWDVHGSRILQYKCIFTY
74.3 nM	Saccharomyces cerevisiae Arp4 (natural protein, Actin-related protein 4 (Arp4), S. cerevisiae; also called Sc Arp4; yeast Arp4) MSNAALQVYGGDEVSAVVIDPGSYTTNIGYSGSDFPQSILPSVYGKYTADEGNKKIFSEQSIGIPRKDYELKPIIENGLVIDWDTAQEQWQWALQNELYLNSNSGIPALLTEPVWNSTENRKKSLEVLLEGMQFEACYLAPTSTCVSFAAGRPNCLVVDIGHDTCSVSPIVDGMTLSKSTRRNFIAGKFINHLIKKALEPKEIIPLFAIKQRKPEFIKKTFDYEVDKSLYDYANNRGFFQECKETLCHICPTKTLEETKTELSSTAKRSIESPWNEEIVFDNETRYGFAEELFLPKEDDIPANWPRSNSGVVKTWRNDYVPLKRTKPSGVNKSDKKVTPTEEKEQEAVSKSTSPAANSADTPNETGKRPLEEEKPPKENNELIGLADLVYSSIMSSDVDLRATLAHNVVLTGGTSSIPGLSDRLMTELNKILPSLKFRILTTGHTIERQYQSWLGGSILTSLGTFHQLWVGKKEYEEVGVERLLNDRFR
